In US6613536B1, “Synthetic peptides and pharmaceutical compositions comprising them for the treatment of systemic lupus erythematosus” (Yeda Research and Development Co. Ltd., priority 1995, dated 2003):

How the values were obtained:
[1] = molecular target: T1, MHC class II products on splenic antigen-presenting cells (APC) (Mus musculus, UniProt P01921+P04228); assay: Inhibition of peptide binding to APC by anti-Ia mAb; set-up: concentration or dose not given beside the values; conditions: BALB/c, H-2 d
T1 construct: Splenic adherent cells (10^6/100 μl/tube) isolated from BALB/c, SJL, C3H.SW or C57BL/6 mice; from tissue; host or cells: mouse spleen adherent cells (BALB/c, SJL, C3H.SW, C57BL/6)
T1 sequence (P04228 24-256): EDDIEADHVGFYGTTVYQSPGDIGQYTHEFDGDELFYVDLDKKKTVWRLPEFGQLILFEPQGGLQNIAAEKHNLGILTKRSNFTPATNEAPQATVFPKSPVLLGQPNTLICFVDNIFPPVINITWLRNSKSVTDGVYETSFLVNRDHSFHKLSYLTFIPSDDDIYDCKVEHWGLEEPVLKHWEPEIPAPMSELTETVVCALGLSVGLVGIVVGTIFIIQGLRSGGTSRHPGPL
T1 sequence (P01921 28-265): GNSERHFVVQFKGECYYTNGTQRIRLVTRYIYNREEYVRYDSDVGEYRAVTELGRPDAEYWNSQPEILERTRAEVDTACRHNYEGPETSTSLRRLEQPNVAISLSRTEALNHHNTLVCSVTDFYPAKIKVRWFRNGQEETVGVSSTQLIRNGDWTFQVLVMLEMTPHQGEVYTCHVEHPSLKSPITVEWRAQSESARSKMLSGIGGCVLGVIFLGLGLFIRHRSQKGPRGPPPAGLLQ
Description: (§1) Spleen cells suspended in RPMI 1640 medium containing 10% FCS were incubated in Petri dishes for 60 min at 37° C. Thereafter, non-adherent cells were removed, the plates were washed, and the adherent cells were collected from the plates using a rubber policeman (Costar, Mass., USA). These cells (1×10^6/100 μl/tube) were incubated with the biotinylated peptides in PBS containing 0.1% BSA (high purity grade, Amresco, Ohio, USA) for 16 hr at 37° C., followed by incubation with phycoerythrin (PE)-streptavidin (Jackson ImmunoResearch) for 30 min at 4° C. Thereafter the samples were incubated with biotinylated anti-streptavidin (1:60, Vector Laboratories, Burlingame, Calif.) and for an additional period with PE-streptavidin, all for 30 min at 4° C. The cells were washed twice with cold PBS/BSA solution after each incubation. Thereafter, cells were analyzed by flow cytometry using the FACSort cytometer and CELLQuest software (Beckton-Dickinson, Mountain View, Calif.). […]
(§2) Binding of the CDR-based peptides Ia and IIIa to APC was determined as described in Materials and Methods herein and the results are shown in Table 2. […] The results are shown in Table 3: Inhibition of binding was specific and ranged from 60% to 100%.

[2] = molecular target: T2, MHC class II products on splenic antigen-presenting cells (APC) (Mus musculus, UniProt P06345+P14437); assay: as above; set-up: concentration or dose not given beside the values; conditions: SJL, H-2 s
T2 construct: Splenic adherent cells (10^6/100 μl/tube) isolated from BALB/c, SJL, C3H.SW or C57BL/6 mice; from tissue; host or cells: mouse spleen adherent cells (BALB/c, SJL, C3H.SW, C57BL/6)
T2 sequence (P14437 1-233): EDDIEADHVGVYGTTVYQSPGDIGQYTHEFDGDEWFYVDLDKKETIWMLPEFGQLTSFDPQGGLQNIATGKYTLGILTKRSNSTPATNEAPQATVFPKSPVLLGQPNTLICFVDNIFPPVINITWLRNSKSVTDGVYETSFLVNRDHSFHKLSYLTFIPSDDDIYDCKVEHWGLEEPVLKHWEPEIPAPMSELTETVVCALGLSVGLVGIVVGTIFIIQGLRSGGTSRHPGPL
T2 sequence (P06345 28-263): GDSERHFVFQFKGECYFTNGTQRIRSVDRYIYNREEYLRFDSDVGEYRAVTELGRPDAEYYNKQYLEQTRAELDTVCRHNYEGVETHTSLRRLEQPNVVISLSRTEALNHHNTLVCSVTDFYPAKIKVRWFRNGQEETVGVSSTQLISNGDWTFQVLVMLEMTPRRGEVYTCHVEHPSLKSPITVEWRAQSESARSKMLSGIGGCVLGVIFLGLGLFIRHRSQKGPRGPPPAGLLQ
Description: as §1, §2

[3] = molecular target: T3, MHC class II products on splenic antigen-presenting cells (APC) (Mus musculus, UniProt P14434+P14483); assay: as above; set-up: concentration or dose not given beside the values
T3 construct: Splenic adherent cells (10^6/100 μl/tube) isolated from BALB/c, SJL, C3H.SW or C57BL/6 mice; from tissue; host or cells: mouse spleen adherent cells (BALB/c, SJL, C3H.SW, C57BL/6)
T3 sequence (P14434 24-256): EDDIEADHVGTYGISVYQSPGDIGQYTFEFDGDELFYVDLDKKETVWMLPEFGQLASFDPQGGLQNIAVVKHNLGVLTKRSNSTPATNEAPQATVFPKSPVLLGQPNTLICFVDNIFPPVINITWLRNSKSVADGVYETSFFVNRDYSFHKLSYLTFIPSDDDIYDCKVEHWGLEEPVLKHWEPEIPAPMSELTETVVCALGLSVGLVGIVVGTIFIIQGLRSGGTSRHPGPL
T3 sequence (P14483 28-265): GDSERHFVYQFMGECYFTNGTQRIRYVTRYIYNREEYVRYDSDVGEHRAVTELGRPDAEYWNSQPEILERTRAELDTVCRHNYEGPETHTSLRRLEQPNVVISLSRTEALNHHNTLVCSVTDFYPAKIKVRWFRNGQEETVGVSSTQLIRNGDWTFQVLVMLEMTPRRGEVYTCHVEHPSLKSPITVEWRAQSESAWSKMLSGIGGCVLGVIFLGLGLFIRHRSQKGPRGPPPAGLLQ
Description: as §1, §2

[4] = test system: peripheral blood lymphocytes (PBL); assay: IL-2 production by PBL of SLE patients and healthy controls; type: cell-based, human; conditions: sample at 24 hr
Description: PBL from human SLE patients and of the appropriate control donors (2×10^5/well) were cultured in microtiter plates in enriched medium containing 10% pooled AB sera in the presence of the human or mouse monoclonal 16/6 Id antibody, in the presence of peptides of the invention or in the presence of phytohemagglutinin (PHA). The rate of proliferation was evaluated by the incorporation of ^3[H]-thymidine in the cell culture. Non-relevant peptides were used as specificity controls. Antigen and mitogen-stimulated cytokine production was quantitated in the supernatants of the above cultures using either the cytokine-dependent lines or the appropriate pairs of antibodies in ELISA assays. Inhibition of the proliferative responses was performed in vitro by adding increasing doses of the tested peptide analogs into the proliferative culture mixtures.
PBL were isolated from blood of SLE patients or healthy controls using ficol gradient, and were incubated as in Example 13. A sample of 50 μl was removed 24 hr after the assay was started, and incubated in the presence of IL-2 sensitive cells (CTLD) for 24 hr, after which ^3H-thymidine was added for 16 hr, and the plates were harvested and counted on a beta counter.

[5] = C3H.SW, H-2 b, mAb anti I-A^b (34-5-3)
[6] = C3H.SW, H-2 b, mAb anti I-A^d (MKD6)
[7] = C57BL/6, H-2 b, mAb anti I-A^b (34-5-3)
[8] = C57BL/6, H-2 b, mAb anti I-A^d (MKD6)

## TGYYMQWVKQSPEKSLEWIG [peptide Ia]
[1]; mAb anti I-A^b (34-5-3)
  % inhibition of binding to APC: 0%
[1]; mAb anti I-A^d (MKD6)
  % inhibition of binding to APC: 76.7%
[2]; mAb anti I-A^d (MKD6)
  % inhibition of binding to APC: 0%
[2]; mAb anti I-A^s (10.3.6.2)
  % inhibition of binding to APC: 100%
[3]; [5]
  % inhibition of binding to APC: 60%
[3]; [6]
  % inhibition of binding to APC: 0%
[3]; [7]
  % inhibition of binding to APC: 82%
[3]; [8]
  % inhibition of binding to APC: 0%
[4]; SLE patients
  IL-2 production by PBL, actual number of responders: 5/32
  IL-2 production by PBL, percentage of responders: 16%
[4]; healthy controls
  IL-2 production by PBL, actual number of responders: 14/25
  IL-2 production by PBL, percentage of responders: 56%

## YYYCARFLWEPYAMDYWGQGS (YYCARFLWEPYAMDYWGQGS) [peptide IIIa, based on the CDR3 region of the VH chain of mAb 5G12]
[1]; mAb anti I-A^b (34-5-3)
  % inhibition of binding to APC: 0%
[1]; mAb anti I-A^d (MKD6)
  % inhibition of binding to APC: 100%
[2]; mAb anti I-A^d (MKD6)
  % inhibition of binding to APC: 0%
[2]; mAb anti I-A^s (10.3.6.2)
  % inhibition of binding to APC: 92.8%
[3]; [5]
  % inhibition of binding to APC: 84.4%
[3]; [6]
  % inhibition of binding to APC: 25%
[3]; [7]
  % inhibition of binding to APC: 59.3%
[3]; [8]
  % inhibition of binding to APC: 0%
[4]; SLE patients
  IL-2 production by PBL, actual number of responders: 5/32
  IL-2 production by PBL, percentage of responders: 16%
[4]; healthy controls
  IL-2 production by PBL, actual number of responders: 16/25
  IL-2 production by PBL, percentage of responders: 64%
